The values that follow come from patent EP3085709A1 (Genor Biopharma Co., Ltd, dated 2016).

Numbering of substitutions follows the chain as printed. In names and notes the source's numbering stands.

The labels stand for the following.
B1: G12 (antibody, human IgG2, kappa, V domains shown)
VH: QVQLVQSGAELKKPGASVKLSCKASGYTFTTYWLQWVRQAPGQGLEWMGAIYPGPGNTKYTQKFKDRFTITADTSKSTAYMQLNSLKSEDSAVYYCARRGSRRGIAYWGQGTLVTVSA
VL: NIVLTQSPASLSVSLGQRATISCRASESVDSYGRSFMHWYQQRPGQAPKLLIYLASNLESGVPARFSGSGSRTDFTLTISSVEAEDEATYYCQQDNEDPYTFGGGTKLEIKG
notes: 293F cells
B2: G14 (antibody, human IgG2, kappa, V domains shown)
VH: B1 VH with L11V, L20V, F68V, T74E, K76T, Q82E, N84S, K87R, S91T
VL: DIVMTQSPDSLAVSLGERATINCRASESVDSYGRSFMHWYQQKPGQAPRLLIYLASNLESGVPSRFSGSGSGTDFTLTINSLEAEDAATYYCQQDNEDPYTFGGGTKLEIKG
B3: G1 (antibody, human IgG2, kappa, V domains shown)
VH: QVQLQQSGAELASPGASVKLSCKASGYTFTTYWLQWVKQRPGQGLEWIGAIYPGPGNTKYTQKFKDKATLTADKSASTAYMQLNSLTSEDSAVYYCARRGSRRGIAYWGQGTLVTVSA
VL: B1 VL with S12A, A47P, K49T, A64V, S80D, S81P, E85D, E87A
notes: expressed in 293F cells; also called murine antibody G1; mouse antibody (G1)
B4: G8 (antibody, human IgG2, kappa, V domains shown)
VH: B1 VH with K12V, K13Q, A40T, F68V, K76T, K87R
VL: B1 VL
B5: G9 (antibody, human IgG2, kappa, V domains shown)
VH: B1 VH with K12V, K13Q, A40T, F68V, K76T, K87R
VL: B1 VL with R43K, A64S, S81R, E87A
notes: 293F cells
B6: G10 (antibody, human IgG2, kappa, V domains shown)
VH: B1 VH
VL: B1 VL with K49R
notes: 293F cells
B7: G15 (antibody, human IgG2, kappa, V domains shown)
VH: B1 VH with L11V, L20V, F68V, T74E, K76T, Q82E, N84S, K87R, S91T
VL: B1 VL with K49R
notes: expressed in CHO-S cells for Embodiments 23-25
B8: G4 (antibody, human IgG2, kappa, V domains shown)
VH: B1 VH with T74K
VL: B1 VL
notes: 293F cells
B9: G13 (antibody, human IgG2, kappa, V domains shown)
VH: B1 VH
VL: B1 VL with R43K, A64S, S81R, E87A
notes: 293F cells
B10: G11 (antibody, human IgG2, kappa, V domains shown)
VH: B1 VH
VL: B1 VL with R43K, A64S, S81A, E87A
notes: 293F cells
B11: pFL249-H16 scFv clone (scFv, not shown: small tags and cut ends)
scFv: QVQLVQSGAELKKPGASVKLSCKASGYTFTTYWLQWVRQAPGQGLEWMGAIYPGPGNTKYTQKFKDRFTITADKSKSTAYMQLNSLKSEDSAVYYCARRGSRRGIAYWGQGTLVTVSAGGGGSGGGGSGGGGSNIVLTQSPASLAVSLGQRATISCRASESVDSYGRSFMHWYQQRPGQPPTLLIYLASNLESGVPVRFSGSGSRTDFTLTIDPVEADDAATYYCQQDNEDPYTFGGGTKLEIK
B12: pFL249-H114 scFv clone (scFv, not shown: small tags and cut ends)
scFv: B11 scFv with K12V, K13Q, A40T, F68V, K74T, K76T, K87R
B13: pFL249-H16u scFv clone (scFv, not shown: small tags and cut ends)
scFv: B11 scFv with K74T
B14: recombinant human RANKL (soluble, Gly136-Asp317, N-terminal 10 His, expressed in CHO cells) (ligand)
chain: HHHHHHHHHHGSQHIRAEKAMVDGSWLDLAKRSKLEAQPFAHLTINATDIPSGSHKVSLSSWYHDRGWAKISNMTFSNGKLIVNQDGFYYLYANICFRHHETSGDLATEYLQLMVYVTKTSIKIPSSHTLMKGGSTKYWSGNSEFHFYSINVGGFFKLRSGEEISIEVSNPSLLDPDQDATYFGAFKVRDID

The target in assay [1] is commercial hRANKL standard (R & D Systems) (human) (UniProt O14788). Description: ELISA, commercial hRANKL standard coated 1 µg/ml, RANK-Fc titrated. For orientation: In an ELISA, binding on a coated surface is turned into a signal by an enzyme label.
In assay [2] the target is T1, recombinant human RANKL (soluble, Gly136-Asp317, N-terminal 10 His, expressed in CHO cells) (human) (UniProt O14788).
T1 sequence: B14 chain
Put plainly: ELISA, recombinant human RANKL coated 1 µg/ml, RANK-Fc titrated.

Assay [3] deals with RANK receptor on RAW264.7 cells (mouse (RAW264.7 cells)) (UniProt O35305). Description: cell-based or functional assay.
The target in assay [4] is B14. Description: competitive ELISA, RANK-Fc coated, antibody pre-incubated with 0.25 µg/ml hRANKL; Plate#02.
The target of assay [5] is B14. Description: ELISA, hRANKL coated 1 µg/ml; concentration at 50% Bmax; Plate#02.
Assay [6] deals with B14. Put plainly: cell-based or functional assay.
The target of assay [7] is B14. Description: ELISA, hRANKL coated 1 µg/ml; concentration at 50% Bmax; Plate#03.
For assay [8], the target named is B14. Description: ELISA, hRANKL coated, method of Example 17; antibody from CHO-S cells.
Assay [9] concerns the target B14. Description: competitive ELISA, RANK-Fc coated, antibody pre-incubated with 0.25 µg/ml hRANKL; third plate (printed Plate#02).
Assay [10] has as its target B14. Put plainly: cell-based or functional assay. This is another data set of the same source.
In assay [11] the target is B14. Put plainly: competitive ELISA, RANK-Fc coated, method of Example 18; antibody from CHO-S cells.
The target in assay [12] is B14. Put plainly: competitive ELISA, RANK-Fc coated, antibody pre-incubated with 0.25 µg/ml hRANKL; Plate#01.
The target of assay [13] is B14. Description: ELISA, hRANKL coated 1 µg/ml; concentration at 50% Bmax; Plate#01.
The target of assay [14] is T1, recombinant human RANKL (soluble, Gly136-Asp317, N-terminal 10 His, expressed in CHO cells) (human). Description: ELISA, hRANKL coated 1 µg/ml, scFv supernatant, anti-c-myc detection.
Assay [15] addresses T2, RANK receptor on RAW264.7 cells (mouse (RAW264.7 cells), UniProt O35305 31-625).
T2 sequence (looked up): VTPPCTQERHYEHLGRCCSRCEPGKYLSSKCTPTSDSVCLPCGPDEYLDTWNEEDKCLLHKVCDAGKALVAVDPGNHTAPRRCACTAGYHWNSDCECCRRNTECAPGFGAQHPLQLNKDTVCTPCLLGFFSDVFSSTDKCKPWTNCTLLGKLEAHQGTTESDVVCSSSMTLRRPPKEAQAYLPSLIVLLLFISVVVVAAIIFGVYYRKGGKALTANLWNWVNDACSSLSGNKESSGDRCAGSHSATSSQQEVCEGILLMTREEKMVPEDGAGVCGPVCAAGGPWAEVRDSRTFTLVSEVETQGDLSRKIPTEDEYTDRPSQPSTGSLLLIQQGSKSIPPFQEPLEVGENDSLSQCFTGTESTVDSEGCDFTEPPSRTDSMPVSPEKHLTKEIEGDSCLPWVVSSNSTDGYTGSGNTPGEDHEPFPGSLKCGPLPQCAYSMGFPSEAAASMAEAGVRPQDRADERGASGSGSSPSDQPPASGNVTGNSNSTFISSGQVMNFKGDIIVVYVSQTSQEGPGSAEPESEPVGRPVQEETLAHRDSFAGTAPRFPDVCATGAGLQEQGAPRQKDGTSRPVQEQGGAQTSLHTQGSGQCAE
Description: cell-based or functional assay.

The EC50 is the midpoint of the concentration-response curve. As usually defined, the IC50 is the midpoint of a concentration-inhibition curve.

Consider RANK-Fc (R & D Systems) (Fc fusion), for which the EC50 in [1] was 0.0056 µg/mL; in [2] it was 0.0109 µg/mL.

“commercial hRANKL standard (R & D Systems) (from UniProt O14788 140-317) (ligand)” came in with an EC50 of inducing RAW264.7 cells to differentiate into osteoclasts (TRAP activity, pNPP) in assay [3] of 35.7 ng/ml.

On to B1, for which the IC50 in [4] came out at 0.36 µg/mL. Further, the EC50 in assay [5] came to 0.00175 µg/mL. Also, in assay [6], the “IC50 (ng/ml) in RAW264.7 cells” value was roughly 1060 ng/mL.

As for B2, the figures for the EC50 in assay [7] and in assay [8] were 0.004 µg/mL and 0.00209 µg/mL, respectively. In addition, the IC50 in assay [9] came to 0.12 µg/mL; in [11], 0.16 µg/mL. For the same molecule, in [6], the “IC50 (ng/ml) in RAW264.7 cells” value is roughly 517 ng/mL. Besides, the “IC50 for inhibiting cell differentiation of RAW264.7” value in [10] turned out to be 0.247 µg/mL.

Consider B3, for which the concentration for half-maximal inhibition (IC50) in assay [4] is roughly 0.35 µg/mL; in assay [12], 0.18 µg/mL. Further, the EC50 in assay [5] came out at 0.00188 µg/mL; in [13] it was 0.00147 µg/mL.

Regarding B4, the IC50 in assay [4] worked out at 0.38 µg/mL; in assay [11], 0.37 µg/mL. Besides, the results for the EC50 in [5] and in assay [8] were 0.00276 µg/mL and 0.00405 µg/mL, respectively. Further, in assay [6], the “IC50 (ng/ml) in RAW264.7 cells” value was roughly 573 ng/mL. Further, in assay [10], the “IC50 for inhibiting cell differentiation of RAW264.7” value turned out to be 0.329 µg/mL.

For B5, the IC50 in assay [4] worked out at 0.5 µg/mL. In assay [5], the EC50 came out at 0.00328 µg/mL.

Turning to B6, the IC50 in assay [4] amounted to 0.4 µg/mL. The EC50 in assay [5] amounted to 0.00285 µg/mL. Besides, the “IC50 (ng/ml) in RAW264.7 cells” value in assay [6] stood at 695 ng/mL.

With B7, the EC50 in [8] turned out to be 0.00356 µg/mL. In assay [10], the “IC50 for inhibiting cell differentiation of RAW264.7” value turned out to be 0.257 µg/mL. In assay [11], the IC50 worked out at 0.25 µg/mL.

With B8, the IC50 in assay [12] was roughly 0.36 µg/mL. Also, the EC50 in assay [13] amounted to 0.00195 µg/mL. The “IC50 (ng/ml) in RAW264.7 cells” value in assay [6] is roughly 1080 ng/mL.

Regarding B9, the IC50 in assay [4] was 0.31 µg/mL. The EC50 in assay [5] was 0.00234 µg/mL.

As to B10, the IC50 in assay [4] stood at 0.19 µg/mL. Further, in assay [5], the EC50 is 0.0019 µg/mL.

For B11, the OD450 in [14] is 1.2 OD450.

For the molecule B12, in assay [14], the OD450 amounted to 1.2 OD450.

For B13, the OD450 in assay [14] came to 1.2 OD450.

On to B14, for which the “EC50 of inducing RAW264.7 cells to differentiate into osteoclasts (TRAP activity, pNPP)” value in assay [15] was 113 ng/ml.
